Results taken from patent US20240390508A1 (Takeda / Millennium, published 2024).

B1: peptide-HDO conjugate of Example 37 (first nucleic acid strand A2, second nucleic acid strand C29) (peptide)
peptide: AVFVWNYYIIRRYYC
modifications: MeF at 3, MeY at 14 (N-methyl); thioether ring from N-terminal chloroacetyl-Ala to Cys 15; C-terminal Gly-KN3-NH2, azide joined to BCN on the oligonucleotide
notes: also called A2/C29
B2: peptide-HDO conjugate of Example 9 (first nucleic acid strand A1, second nucleic acid strand C9) (peptide)
peptide: AVFVWNYYIIRRYYC
modifications: not fully specified; MeF at 3, MeY at 14 (N-methyl); thioether ring from N-terminal chloroacetyl-Ala to Cys 15; C-terminal Gly-KN3-NH2, azide joined to BCN on the oligonucleotide
notes: also called A1/C9
B3: peptide-HDO conjugate of Example 14 (first nucleic acid strand A2, second nucleic acid strand C4) (peptide)
peptide: AVFVWNYYIIRRYYC
modifications: MeF at 3, MeY at 14 (N-methyl); thioether ring from N-terminal chloroacetyl-Ala to Cys 15; C-terminal Gly-KN3-NH2, azide joined to BCN on the oligonucleotide
notes: also called A2/C4
B4: peptide-HDO conjugate of Example 22 (first nucleic acid strand A2, second nucleic acid strand C17) (peptide)
peptide: AVFVWNYYIIRRYYC
modifications: MeF at 3, MeY at 14 (N-methyl); thioether ring from N-terminal chloroacetyl-Ala to Cys 15; C-terminal Gly-KN3-NH2, azide joined to BCN on the oligonucleotide
notes: also called A2/C17
B5: peptide-HDO conjugate of Example 56 (first nucleic acid strand A4, second nucleic acid strand C56) (peptide)
peptide: AVFVWNYYIIRRYYC
modifications: not fully specified; MeF at 3, MeY at 14 (N-methyl); thioether ring from N-terminal chloroacetyl-Ala to Cys 15; C-terminal Gly-KN3-NH2, azide joined to BCN on the oligonucleotide
notes: also called A4/C56
B6: Y10-PMO conjugate of Example 57 (peptide)
peptide: AVFVWNYYIIRRYYC
chain: RRRA
modifications: not fully specified; N-terminal BCN-AEEA; C-terminal beta-Ala coupled to the 3' end of PMO A1; MeF at 3, MeY at 14 (N-methyl); thioether ring from N-terminal chloroacetyl-Ala to Cys 15; C-terminal Gly-KN3-NH2, azide joined to BCN of the linker peptide
B7: Y13-PMO conjugate of Example 60 (peptide)
peptide: AVFVWNYYIIRRYYC
chain: RRRG
modifications: not fully specified; N-terminal 4-pentynoyl-AEEA; C-terminal Gly coupled to PMO A4; MeF at 3, MeY at 14 (N-methyl); thioether ring from N-terminal chloroacetyl-Ala to Cys 15; C-terminal Gly-KN3-NH2, azide joined by copper-catalysed click to the 4-pentynoyl group of the linker …
B8: peptide-HDO conjugate of Example 10 (first nucleic acid strand A2, second nucleic acid strand C10) (peptide)
peptide: AVFVWNYYIIRRYYC
modifications: MeF at 3, MeY at 14 (N-methyl); thioether ring from N-terminal chloroacetyl-Ala to Cys 15; C-terminal Gly-KN3-NH2, azide joined to BCN on the oligonucleotide
notes: also called A2/C10
B9: peptide-HDO conjugate of Example 36 (first nucleic acid strand A2, second nucleic acid strand C28) (peptide)
peptide: AVFVWNYYIIRRYYC
modifications: MeF at 3, MeY at 14 (N-methyl); thioether ring from N-terminal chloroacetyl-Ala to Cys 15; C-terminal Gly-KN3-NH2, azide joined to BCN on the oligonucleotide
notes: also called A2/C28
B10: peptide-HDO conjugate of Example 21 (first nucleic acid strand A1, second nucleic acid strand C21) (peptide)
peptide: AVFVWNYYIIRRYYC
modifications: MeF at 3, MeY at 14 (N-methyl); thioether ring from N-terminal chloroacetyl-Ala to Cys 15; C-terminal Gly-KN3-NH2, azide joined to BCN on the oligonucleotide
notes: also called A1/C21
B11: peptide-HDO conjugate of Example 25 (first nucleic acid strand A2, second nucleic acid strand C20) (peptide)
peptide: AVFVWNYYIIRRYYC
modifications: MeF at 3, MeY at 14 (N-methyl); thioether ring from N-terminal chloroacetyl-Ala to Cys 15; C-terminal Gly-KN3-NH2, azide joined to BCN on the oligonucleotide
notes: also called A2/C20
B12: peptide-HDO conjugate of Example 16 (first nucleic acid strand A2, second nucleic acid strand C16) (peptide)
peptide: AVFVWNYYIIRRYYC
modifications: MeF at 3, MeY at 14 (N-methyl); thioether ring from N-terminal chloroacetyl-Ala to Cys 15; C-terminal Gly-KN3-NH2, azide joined to BCN on the oligonucleotide
notes: also called A2/C16
B13: peptide-HDO conjugate of Example 6 (first nucleic acid strand A1, second nucleic acid strand C6) (peptide)
peptide: AVFVWNYYIIRRYYC
modifications: MeF at 3, MeY at 14 (N-methyl); thioether ring from N-terminal chloroacetyl-Ala to Cys 15; C-terminal Gly-KN3-NH2, azide joined to BCN on the oligonucleotide
notes: also called A1/C6
B14: peptide-HDO conjugate of Example 19 (first nucleic acid strand A1, second nucleic acid strand C19) (peptide)
peptide: AVFVWNYYIIRRYYC
modifications: MeF at 3, MeY at 14 (N-methyl); thioether ring from N-terminal chloroacetyl-Ala to Cys 15; C-terminal Gly-KN3-NH2, azide joined to BCN on the oligonucleotide
notes: also called A1/C19
B15: peptide-HDO conjugate of Example 15 (first nucleic acid strand A2, second nucleic acid strand C15) (peptide)
peptide: AVFVWNYYIIRRYYC
modifications: MeF at 3, MeY at 14 (N-methyl); thioether ring from N-terminal chloroacetyl-Ala to Cys 15; C-terminal Gly-KN3-NH2, azide joined to BCN on the oligonucleotide
notes: also called A2/C15
B16: peptide-HDO conjugate of Example 41 (first nucleic acid strand A2, second nucleic acid strand C33) (peptide)
peptide: AVFVWNYYIIRRYYC
modifications: MeF at 3, MeY at 14 (N-methyl); thioether ring from N-terminal chloroacetyl-Ala to Cys 15; C-terminal Gly-KN3-NH2, azide joined to BCN on the oligonucleotide
notes: also called A2/C33
B17: Y6-HDO conjugate of Example 1 (compound A1 annealed with compound C1) (peptide)
peptide: AVFVWNYYIIRRYYC
modifications: MeF at 3, MeY at 14 (N-methyl); thioether ring from N-terminal chloroacetyl-Ala to Cys 15; C-terminal Gly-KN3-NH2, azide joined to BCN on the oligonucleotide
notes: also called A1/C1
B18: peptide-HDO conjugate of Example 40 (first nucleic acid strand A2, second nucleic acid strand C32) (peptide)
peptide: AVFVWNYYIIRRYYC
modifications: MeF at 3, MeY at 14 (N-methyl); thioether ring from N-terminal chloroacetyl-Ala to Cys 15; C-terminal Gly-KN3-NH2, azide joined to BCN on the oligonucleotide
notes: also called A2/C32
B19: peptide-HDO conjugate of Example 45 (first nucleic acid strand A1, second nucleic acid strand C45) (peptide)
peptide: AVFVWNYYIIRRYYC
modifications: MeF at 3, MeY at 14 (N-methyl); thioether ring from N-terminal chloroacetyl-Ala to Cys 15; C-terminal Gly-KN3-NH2, azide joined to BCN on the oligonucleotide
notes: also called A1/C45
B20: peptide-HDO conjugate of Example 42 (first nucleic acid strand A1, second nucleic acid strand C42) (peptide)
peptide: AVFVWNYYIIRRYYC
modifications: MeF at 3, MeY at 14 (N-methyl); thioether ring from N-terminal chloroacetyl-Ala to Cys 15; C-terminal Gly-KN3-NH2, azide joined to BCN on the oligonucleotide
notes: also called A1/C42
B21: peptide-HDO conjugate of Example 34 (first nucleic acid strand A2, second nucleic acid strand C26) (peptide)
peptide: AVFVWNYYIIRRYYC
modifications: MeF at 3, MeY at 14 (N-methyl); thioether ring from N-terminal chloroacetyl-Ala to Cys 15; C-terminal Gly-KN3-NH2, azide joined to BCN on the oligonucleotide
notes: also called A2/C26
B22: peptide-HDO conjugate of Example 33 (first nucleic acid strand A1, second nucleic acid strand C33) (peptide)
peptide: AVFVWNYYIIRRYYC
modifications: MeF at 3, MeY at 14 (N-methyl); thioether ring from N-terminal chloroacetyl-Ala to Cys 15; C-terminal Gly-KN3-NH2, azide joined to BCN on the oligonucleotide
notes: also called A1/C33
B23: peptide-HDO conjugate of Example 35 (first nucleic acid strand A2, second nucleic acid strand C27) (peptide)
peptide: AVFVWNYYIIRRYYC
modifications: MeF at 3, MeY at 14 (N-methyl); thioether ring from N-terminal chloroacetyl-Ala to Cys 15; C-terminal Gly-KN3-NH2, azide joined to BCN on the oligonucleotide
notes: also called A2/C27
B24: peptide-HDO conjugate of Example 11 (first nucleic acid strand A2, second nucleic acid strand C11) (peptide)
peptide: AVFVWNYYIIRRYYC
modifications: MeF at 3, MeY at 14 (N-methyl); thioether ring from N-terminal chloroacetyl-Ala to Cys 15; C-terminal Gly-KN3-NH2, azide joined to BCN on the oligonucleotide
notes: also called A2/C11
B25: peptide-HDO conjugate of Example 47 (first nucleic acid strand A1, second nucleic acid strand C47) (peptide)
peptide: AVFVWNYYIIRRYYC
modifications: MeF at 3, MeY at 14 (N-methyl); thioether ring from N-terminal chloroacetyl-Ala to Cys 15; C-terminal Gly-KN3-NH2, azide joined to BCN on the oligonucleotide
notes: also called A1/C47
B26: peptide-HDO conjugate of Example 49 (first nucleic acid strand A1, second nucleic acid strand C49) (peptide)
peptide: AVFVWNYYIIRRYYC
modifications: MeF at 3, MeY at 14 (N-methyl); thioether ring from N-terminal chloroacetyl-Ala to Cys 15; C-terminal Gly-PEG4c-KN3-NH2, azide joined to BCN on the oligonucleotide
notes: also called A1/C49

Target: T1, human transferrin receptor (hTfR) (human, UniProt P02786 89-760, limits assumed)
T1 construct: 0.5 uM hTfR solution immobilised on a Ni-NTA chip with EDC/NHS; source and construct are not described; also called human TfR
Assay: SPR, hTfR immobilised on NTA chip, single cycle kinetics; A = KD less than 100 nM
Protocol: The various synthesized peptide-nucleic acid conjugates were tested for intermolecular interaction by surface plasmon resonance (SPR) of the peptide-nucleic acid conjugate with transferrin receptor (hTfR) using the method shown below. The specific test method is shown below.
NTA sensor chip (Global Life Science Technologies Japan Co., Ltd.) was inserted into Biacore T200 (Global Life Science Technologies Japan Co., Ltd.), prime operation was performed three times with running buffer: 10 mM HEPES pH 8.0 (Nacalai Tesque Co., Ltd.), 150 mM NaCl (Nacalai Tesque Co., Ltd.), 0.05% Tween 20 (Nacalai Tesque Co., Ltd.), 0.1% BSA (SIGMA-ALDRICH), and 1.0% DMSO (FUJIFILM Wako Pure Chemical Corporation), and equilibrated at a flow rate of 30 μL/min. 350 mM EDTA solution was reacted for 60 seconds at a flow rate of 10 μL/min, 0.5 mM NiCl₂ solution (Kishida Chemical) was reacted for 60 seconds at a flow rate of 10 μL/min, and the NTA sensor chip was washed with 3 mM EDTA solution (Nacalai Tesque Co., Ltd.) for 60 seconds at a flow rate of 10 μL/min. After mixing 50 μL each of 60 mM EDC solution (Global Life Science Technologies Japan Co., Ltd.) and 650 mM NHS solution (Global Life Science Technologies Japan Co., Ltd.), the mixture was reacted for 420 seconds at a flow rate of 10 μL/min. 150 μL of a 0.5 μM hTfR solution was prepared by diluting with a running buffer and reacted for 300 seconds at a flow rate of 10 μL/min to immobilize hTfR on the NTA sensor chip. After immobilization, capping was performed by reacting with a 1.0 M ethanolamine aqueous solution (Global Life Science Technologies Japan Co., Ltd.) at a flow rate of 10 μL/min for 420 seconds. A peptide-nucleic acid conjugate solution adjusted to 10 mM in DMSO solution was diluted with running buffer to a final concentration of […] peptide-nucleic acid conjugate solution, and 100 nM, 50 nM, 25 nM, 10 nM, 5 nM peptide-nucleic acid conjugate solutions were prepared. Using the aforementioned samples, the kinetics of the peptide against hTfR was obtained by SPR measurement.
The kinetics evaluation model was Single Cycle Kinetics, and curve fitting was performed using Biacore T200 Evaluation Software Version 3.0 (Global Life Science Technologies Japan Co., Ltd.).

T1 sequence (P02786 89-760 limits assumed): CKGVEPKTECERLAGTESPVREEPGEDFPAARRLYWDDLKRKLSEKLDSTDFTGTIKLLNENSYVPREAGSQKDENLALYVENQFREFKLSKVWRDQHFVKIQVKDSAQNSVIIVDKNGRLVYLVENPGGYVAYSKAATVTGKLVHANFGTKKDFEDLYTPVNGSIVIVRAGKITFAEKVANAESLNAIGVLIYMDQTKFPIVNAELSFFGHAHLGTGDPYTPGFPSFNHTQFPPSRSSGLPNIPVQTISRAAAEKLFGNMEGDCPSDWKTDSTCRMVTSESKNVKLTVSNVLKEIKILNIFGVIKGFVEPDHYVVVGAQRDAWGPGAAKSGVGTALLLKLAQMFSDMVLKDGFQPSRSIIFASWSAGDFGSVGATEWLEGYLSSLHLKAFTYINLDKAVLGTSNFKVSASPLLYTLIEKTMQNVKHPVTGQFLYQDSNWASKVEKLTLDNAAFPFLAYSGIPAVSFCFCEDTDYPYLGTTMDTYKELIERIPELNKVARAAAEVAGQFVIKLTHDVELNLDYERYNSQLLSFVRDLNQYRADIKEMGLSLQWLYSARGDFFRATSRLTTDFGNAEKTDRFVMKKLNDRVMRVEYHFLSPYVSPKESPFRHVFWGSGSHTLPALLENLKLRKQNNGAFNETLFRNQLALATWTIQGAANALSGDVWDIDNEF

Row | Binder | Kd
1 | B1 | < 100 nM
2 | B2 | < 100 nM
3 | B3 | < 100 nM
4 | B4 | < 100 nM
5 | B5 | < 100 nM
6 | B6 | < 100 nM
7 | B7 | < 100 nM
8 | B8 | < 100 nM
9 | B9 | < 100 nM
10 | B10 | < 100 nM
11 | B11 | < 100 nM
12 | B12 | < 100 nM
13 | B13 | < 100 nM
14 | B14 | < 100 nM
15 | B15 | < 100 nM
16 | B16 | < 100 nM
17 | B17 | < 100 nM
18 | B18 | < 100 nM
19 | B19 | < 100 nM
20 | B20 | < 100 nM
21 | B21 | < 100 nM
22 | B22 | < 100 nM
23 | B23 | < 100 nM
24 | B24 | < 100 nM
25 | B25 | < 100 nM
26 | B26 | < 100 nM
